The target of assay [1] is phosphorylated SARS-CoV-2 Nucleocapsid protein (pN) (SARS-CoV-2) (UniProt P0DTC9). Put plainly: […].
The target in assay [2] is SARS-CoV-2 Nucleocapsid protein (N), unmodified (SARS-CoV-2) (UniProt P0DTC9). Put plainly: […].

Regarding “6xHis-GFP-M^104–222 (C-terminal endodomain of the SARS-CoV-2 Membrane protein) (from UniProt P0DTC5 104-222) (domain or fragment)”, the partition coefficient was determined as 0.3 in assay [1] and 9.8 in assay [2].

“6xHis-GFP-Nsp3^1–111 (ubiquitin-like domain 1 of SARS-CoV-2 Nsp3) (domain or fragment)”: the partition coefficient in assay [1] turned out to be 2.2; in assay [2], 12.6.

Values taken from article PMC11507936.
